Biological target: T1, murine CD47 (murine, UniProt Q61735 19-303)
T1 sequence (looked up): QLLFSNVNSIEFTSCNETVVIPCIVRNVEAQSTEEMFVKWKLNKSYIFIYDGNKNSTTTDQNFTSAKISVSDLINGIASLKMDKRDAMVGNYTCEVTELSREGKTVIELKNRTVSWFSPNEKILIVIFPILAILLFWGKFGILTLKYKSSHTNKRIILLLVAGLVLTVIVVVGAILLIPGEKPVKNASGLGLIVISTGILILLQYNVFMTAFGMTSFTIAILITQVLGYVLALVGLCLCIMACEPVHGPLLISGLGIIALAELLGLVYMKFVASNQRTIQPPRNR
Test: cell-based or functional assay

B1: anti-mCD47 nanobody-ultraID (murine CD47) (other)
chain: QVQLVESGGGLVEPGGSLRLSCAASGIIFKINDMGWYRQAPGKRREWVAASTGGDEAIYRDSVKDRFTISRDAKNSVFLQMNSLKPEDTAVYYCTAVISTDRDGTEWRRYWGQGTQVTVSSGGLPETGGGGGSGGGSGGGSMFKNLIWLKEVDSTQERLKEWNVSYGTALVADRQTKGRGGPGRKWLSQEGGLYFSFLLNPKEFENLLQLPLVLGLSVSEALEEITEIPFSLKWPNDVYFQEKKVSGVLCELSKDKLIVGIGINVNQREIPEEIKDRATTLYEITGKDWDRKEVLLKVLKRISENLKKFKEK
biotin labeling of B16 cells, fold over non-targeted ultraID at 1 nM: 10 fold
streptavidin-PE signal on B16 cells, enzyme-based labeling relative to binding by the biotinylated nanobody construct alone: ≥ 20 fold
